Data reported in US20110027235.

How the values were obtained:
[1] = test system: ZFN 16233 (OCT4 pair 3, R) (synthetic); assay: cell_activity; settings: ZFN pair 3 with 16234, 2.5 ug, BG01 hESC; only 2 clones; 0% at 10 ug (1 clone); labelled pair 2 in Table 3
[2] = test system: ZFN 16234 (OCT4 pair 3, L) (synthetic); assay: cell_activity; settings: ZFN pair 3 with 16233, 2.5 ug, BG01 hESC; only 2 clones; 0% at 10 ug (1 clone); labelled pair 2 in Table 3

| Sequence | activity (% targeting efficiency) [1] | activity (% targeting efficiency) [2] |
| --- | --- | --- |
| GCCAGGTCTGGGCAGCTGCAGGTGACCA (double strand) [OCT4 target of 16233] | 50 |  |
| CCCAGGAGAGGAGCAGGCAGGGTCAGCT (double strand) [OCT4 target of 16234] |  | 50 |
